# Laboratory results published in paper PMC3621757, “Structural Plasticity in Human Heterochromatin Protein 1β” (PLoS ONE, 2013).
# B1: full-length human Heterochromatin Protein 1β, hHP1β (2–185) (natural protein)
# chain: not shown
# notes: The His-tag is TEV-protease-cleavable; NMR samples were 15N-perdeuterated; also called full-length hHP1β; source: pET16b expression vector (Novagen); additional size-exclusion chromatography on Superdex200 for SAXS and DLS samples
# Molecular target: the molecule itself
# Assay: small angle X-ray scattering (SAXS); hHP1β (2–185) at 1.0, 2.0 and 5.0 mg/mL, 283 K; 20 mM sodium phosphate pH 6.5, 50 mM NaCl, 2 mM DTT; MW from forward scattering against bovine serum albumin
protein,measurement,value
B1,stoichiometry N,2
